Molecular target: recombinant E2 (genotype 1a) (hepatitis C virus genotype 1a) (UniProt P26664)
Assay: ELISA, E2 coated as negative control antigen; crude periplasmic Fab

Sequence of recombinant E2 (genotype 1a) (hepatitis C virus genotype 1a) (P26664 384-715 limits assumed): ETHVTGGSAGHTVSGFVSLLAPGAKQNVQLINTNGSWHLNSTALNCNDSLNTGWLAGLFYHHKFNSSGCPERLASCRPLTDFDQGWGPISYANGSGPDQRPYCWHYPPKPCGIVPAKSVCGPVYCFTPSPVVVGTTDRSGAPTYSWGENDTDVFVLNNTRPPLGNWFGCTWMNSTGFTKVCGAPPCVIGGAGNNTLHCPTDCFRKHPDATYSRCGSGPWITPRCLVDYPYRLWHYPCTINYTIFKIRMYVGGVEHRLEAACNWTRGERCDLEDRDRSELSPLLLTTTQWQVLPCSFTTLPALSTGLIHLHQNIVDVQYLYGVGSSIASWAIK

B1: Fab clone 4:6 (Fab, V domains shown)
VH: VQLLEQSGAEVKKPGASVKVSCKASGYTFTKYYLHWVRQAPGQGLEWMGFINPSGGSTSSAQKFQGRISMTRDTSTTTVYMEVNSVTSEDTAVYYCARVGRLGVGATGAFDLWGQGTMVTVSS
VL: AELTQSPSSLSASVGDRVTITCQASQDINYSLNWYQQKPGKPPKLLIYYASHSDTGVPSRFSGGGSGTRFTLTIYSLQPEDIATYYCQHFDHVPRYTFGPGTKVDLK
  OD405 nm: 0.08 OD405 nm

B2: Fab clone 6a:5 (Fab, V domains shown)
VH: EVQLLESGPGLVKPSQTLSLTCAISGDNVSRKSAAWNWIRQSPSRGLEWLGRTYHMSKWYSVYATSLKSRININVDTSRNQFALQLRSVTPEDTAVYYCAREGPEWAVGGTYGMDVWGQGTTVTVSS
VL: AELTQSPDTLSLSPGERATLSCRASQSVNNNYLAWYQQKPGQAPRLLIYGASSRATGIPDRFSGSGSETDFTLTISRLEPEDFAVYYCQQYDSSRTFGQGTKVEIK
  OD405 nm: 0.03 OD405 nm
